“And” between values parts separate entries of the source, which are not always exact repeats. Identical values can stand only once. Like-named read-outs stand apart in the source and are kept apart here.
How the values were obtained:
[1] = target: T1, glycosylated human PAI-1 (active form) (human, UniProt P05121 24-402, glycosylated (sites not given)); experiment: cell-based or functional assay
[2] = target: T1, glycosylated human PAI-1 (active form); experiment: cell-based or functional assay; remark: listed apart in the source
human PAI-1 [3] = target: T2, human PAI-1 (human, UniProt P05121 24-402); experiment: Biacore supernatant screen, graded off-rate
T2 construct: serpin; also called hPAI-1

[4] = target: T1, glycosylated human PAI-1 (active form); experiment: Biacore 2000, mAb captured, single-cycle kinetics
endogenous human PAI-1 [5] = target: T3, endogenous human PAI-1 (human, UniProt P05121 24-402); experiment: cell-based or functional assay
[6] = target: T1, glycosylated human PAI-1 (active form); experiment: cell-based or functional assay; remark: listed apart in the source
cynomolgus PAI-1 [7] = target: T4, cynomolgus PAI-1 (cynomolgus (Macaca fascicularis), UniProt P05121 24-402 (human entry)); experiment: value used to set up the HDX MS samples
T4 construct: produced in-house in E. coli; latent conformation in the crystal; also called cyno PAI-1; cPAI-1

[8] = target: T1, glycosylated human PAI-1 (active form); experiment: cell-based or functional assay; remark: listed apart in the source
endogenous human PAI-1 [9] = target: T3, endogenous human PAI-1; experiment: cell-based or functional assay; remark: listed apart in the source
cynomolgus PAI-1 [10] = target: T4, cynomolgus PAI-1; experiment: cell-based or functional assay
human PAI-1 [11] = target: T2, human PAI-1; experiment: cell-based or functional assay
endogenous human PAI-1 [12] = target: T3, endogenous human PAI-1; experiment: cell-based or functional assay; remark: listed apart in the source

B1: B109 (antibody)
chain 1: SGQGLDWIGAIYPGNSDTTYNQKFEDKAKLTAVASASTAYMEVSSLTNEDSAVYYCTRGLRRWGAMDYWGQGTSVTVSS
chain 2: DIVMTQSHKFMSTSAGDRVSIPCKASQDVSSAVAWYQQKLGQSPKLLIYSASFRYTGVPDRFTGSGSGTDFTFTISSVQAEDLAVYYCQQHYSSPYTFGGGTNLEIK
- Chromogenic Assays [1]: 0.23 nM
- plasmin generation, IC50abs [2]: 6.11 nM
- plasmin generation, Imax [2]: 94%
- koff (human PAI-1 [3]): ≤ 0.0001 s⁻¹

B2: C45 (antibody, mouse IgG2b, V domains shown)
VH: QVQLQQSGVELVRPGTSVKVSCKASGYAFTNYLIEWIKQRPGQGLEWIGVIHPGSGVTNYNEKFKGKAILTADKSSSTAYMQLSSLTSDDSAVYFCARDYYGSSHGLMDYWGQGTSVTVSS
VL: DIKMTQSPSSMYASLGERVTITCKASQDINSYLSWFQQKPGKSPKTLIYRANRLVDGVPSRFSGSGSGQDYSLTISSLEYEDMGIYYCLQYDEFPRTFGGGTKLEIK
- plasmin generation, IC50abs [2]: 6.5 nM
- plasmin generation, Imax [2]: 97%

B3: APG (antibody, V domains shown)
VH: QVKLQESGPELVKPGASVKISCKASGYSFTDYNMNWVKQSKGKSLEWIGIIHPNSGTTTYNQKFKGKATLTVDQSSSTAYLQLNSLTSEDSAVYYCARSKLRFFDYWGQGTTVTVSS
VL: DIKLTQSPSSMYASLGERVTITCKASQDIYSYLSWFQQKPGKSPKTLIYRANRLIDGVPSRFSGSGSGQDYSLTISSLEYEHMGIYYCLQYDEFPFTFGSGTKLEIK
notes: mouse antibody; also called mAPG; mouse APG
- kon [4]: 3.82e+06 M⁻¹ s⁻¹
- human plasma, uPA-PAI-1 ELISA IC50abs (endogenous human PAI-1 [5]): 1.81 nM
- human plasma, uPA-PAI-1 ELISA Imax (endogenous human PAI-1 [5]): 89.7%
- human plasma clot lysis IC50 [6]: 2.34 nM
- human plasma clot lysis Imax @ 100 nM [6]: 123%

B4: APGv2 (antibody, V domains shown)
VH: QVQLVQSGSELKKPGASVKVSCKASGYSFTDYNMNWVRQAPGQGLEWIGIIHPNSGTTTYNQKFKGRAVLSVDQSVSTAYLQISSLKAEDTAVYYCARSKLRFFDYWGQGTLVTVSS
VL: DIQLTQSPSSLSASVGDRVTITCKASQDIYSYLSWFQQKPGKAPKTLIYRANRLIDGVPSRFSGSGSGQDYTFTISSLQPEDIATYYCLQYDEFPFTFGQGTKLEIK
notes: humanized; also called APG variant 2
- Kd (cynomolgus PAI-1 [7]): < 0.05 nM
- kon [4]: 6.58e+06 M⁻¹ s⁻¹
- human plasma, uPA-PAI-1 ELISA IC50abs (endogenous human PAI-1 [5]): 0.962 nM
- human plasma, uPA-PAI-1 ELISA Imax (endogenous human PAI-1 [5]): 94.5%
- human plasma clot lysis IC50 [6]: 2.08 nM
- human plasma clot lysis Imax @ 100 nM [6]: 114%

B5: APGv4 (antibody, V domains shown)
VH: QVQLVQSGAEVKKPGASVKVSCKASGYSFTDYNMNWVRQAPGQGLEWIGIIHPNSGTTTYNQKFKGRATLTVDQSTSTAYMELSSLRSEDTAVYYCARSKLRFFDYWGQGTLVTVSS
VL: DIQLTQSPSSLSASVGDRVTITCKASQDIYSYLSWFQQKPGKAPKTLIYRANRLIDGVPSRFSGSGSGQDYTFTISSLQPEDIATYYCLQYDEFPFTFGQGTKLEIK
notes: humanized; also called APG variant 4
- kon [4]: 9.48e+06 M⁻¹ s⁻¹
- human plasma, uPA-PAI-1 ELISA IC50abs (endogenous human PAI-1 [5]): 1.28 nM
- human plasma, uPA-PAI-1 ELISA Imax (endogenous human PAI-1 [5]): 94.4%
- human plasma clot lysis IC50 [6]: 2.82 nM
- human plasma clot lysis Imax @ 100 nM [6]: 116%

B6: A44-hv11 (antibody, V domains shown)
VH: QMTLKESGPTLVKPTQTLSLTCSVSGDSMTNGYWNWIRQFPGKALEYMGYITYSGSTYYNPSLKGRITITRDTSKNQYYLTLSSVTTVDTATYYCARWHYGSPYYFDYWGQGTTLTVSS
VL: DIKMTQSPSSLSASVGDRVTITCKASQDINSYLSWLQQKPGKSPKTLIYRAQRSVEGVPSRFSGSGSGQDYSLTISSLQPEDLGIYYCLQYDEFPPTFGGGTKLEIK
notes: constant regions only as pictures; also called A44V11; A44v11
- Kd (cynomolgus PAI-1 [7]): < 0.05 nM
- human plasma clot lysis IC50 [8]: 2 nM
- uPA-PAI-1 complex ELISA IC50 (endogenous human PAI-1 [9]): 0.0157 nM
- uPA-PAI-1 complex ELISA Y50% (endogenous human PAI-1 [9]): 37.5%
- Cyno PAI-1 neutralization IC50 (cynomolgus PAI-1 [10]): 0.0424 nM
- Cyno PAI-1 neutralization Y50% (cynomolgus PAI-1 [10]): 50.8%
- uPA-PAI-1 complex ELISA IC50 (human PAI-1 [11]): 0.131 nM
- uPA-PAI-1 complex ELISA Y50% (human PAI-1 [11]): 50.8%
- human liver lysate, uPA-PAI-1 ELISA IC50 (endogenous human PAI-1 [12]): 0.0365 nM and 0.0503 nM and 0.0465 nM
- human liver lysate, uPA-PAI-1 ELISA IC50, mean (endogenous human PAI-1 [12]): 0.0444 nM
- human plasma clot lysis IC50 [6]: 1.38 nM
- human plasma clot lysis Imax @ 100 nM [6]: 113%

B7: A44-hv13 (antibody, V domains shown)
VH: QMQLQESGPGLVKPSETLSLTCTVSGDSMTNGYWNWIRQPPGKGLEYMGYITYSGSTYYNPSLKSRITISRDTSKNQYSLKLSSVTAADTAVYYCARWHYGSPYYFDYWGQGTLVTVSS
VL: DIKMTQSPSSLSASVGDRVTITCKASQDINSYLSWLQQKPGKSPKTLIYRAQRSVEGVPSRFSGSGSGQDYSLTISSLQPEDLGIYYCLQYDEFPPTFGGGTKLEIK
- uPA-PAI-1 complex ELISA IC50 (endogenous human PAI-1 [9]): 0.0311 nM
- uPA-PAI-1 complex ELISA Y50% (endogenous human PAI-1 [9]): 61.4%
- Cyno PAI-1 neutralization IC50 (cynomolgus PAI-1 [10]): 0.0281 nM
- Cyno PAI-1 neutralization Y50% (cynomolgus PAI-1 [10]): 52.8%
- uPA-PAI-1 complex ELISA IC50 (human PAI-1 [11]): 0.166 nM
- uPA-PAI-1 complex ELISA Y50% (human PAI-1 [11]): 52.8%

B8: A44-hv14 (antibody, V domains shown)
VH: QMQLQESGPGLVKPSETLSLTCTVSGDSMTNGYWNWIRQPPGKGLEYMGYITYSGSTYYNPSLKSRITISRDTSKNQYSLKLSSVTAADTAVYYCARWHYGSPYYFDYWGQGTLVTVSS
VL: DIKMTQSPSSLSASVGDRVTITCKASQDINSYLSWLQQKPGKSPKTLIYRAQRSVEGVPSRFSGSGSGQDYSLTISSLQPEDLATYYCLQYDEFPPTFGGGTKLEIK
- uPA-PAI-1 complex ELISA IC50 (endogenous human PAI-1 [9]): 0.0586 nM
- uPA-PAI-1 complex ELISA Y50% (endogenous human PAI-1 [9]): 73.9%
- Cyno PAI-1 neutralization IC50 (cynomolgus PAI-1 [10]): 0.0287 nM
- Cyno PAI-1 neutralization Y50% (cynomolgus PAI-1 [10]): 52.5%
- uPA-PAI-1 complex ELISA IC50 (human PAI-1 [11]): 0.0563 nM
- uPA-PAI-1 complex ELISA Y50% (human PAI-1 [11]): 52.5%

B9: A44-hv12 (antibody, V domains shown)
VH: QMTLKESGPTLVKPTQTLSLTCSVSGDSMTNGYWNWIRQFPGKALEYMGYITYSGSTYYNPSLKGRITITRDTSKNQYYLTLSSVTTVDTATYYCARWHYGSPYYFDYWGQGTTLTVSS
VL: DIKMTQSPSSLSASVGDRVTITCKASQDINSYLSWLQQKPGKSPKTLIYRAQRSVEGVPSRFSGSGSGQDYSLTISSLQPEDLATYYCLQYDEFPPTFGGGTKLEIK
- uPA-PAI-1 complex ELISA IC50 (endogenous human PAI-1 [9]): 0.00335 nM
- uPA-PAI-1 complex ELISA Y50% (endogenous human PAI-1 [9]): 37.7%
- Cyno PAI-1 neutralization IC50 (cynomolgus PAI-1 [10]): 0.0266 nM
- Cyno PAI-1 neutralization Y50% (cynomolgus PAI-1 [10]): 53.5%
- uPA-PAI-1 complex ELISA IC50 (human PAI-1 [11]): 0.114 nM
- uPA-PAI-1 complex ELISA Y50% (human PAI-1 [11]): 53.5%

B10: A44 (antibody, mouse IgG1, V domains shown)
VH: EMQLQESGPSLVKPSQTLSLTCSVTGDSMTNGYWNWIRKFPGNKLEYMGYITYSGSTYYNPSLKGRISITRNTSKNQYYLQLSSVTTEDTATYYCARWHYGSPYYFDYWGQGTTLTVSS
VL: DIKMTQSPSSMYASLGERVTITCKASQDINSYLSWLQQKPGKSPKTLIYRANRSVDGVPSRFSGSGSGQDYSLTISSLEYEDMGIYYCLQYDEFPPTFGGGTKLEIKR
- plasmin generation, IC50abs [2]: 3.32 nM
- plasmin generation, Imax [2]: 97%

B11: A71 (antibody, mouse IgG1, V domains shown)
VH: QVQLQQSGAELMKPGASVKISCKATGFTFSTYWIEWIKQRPGHGLDWIGEILPGSGNTNYNEKFKGKATFTADTSSNTVYMQLSSLTSEDSAVYYCARGGLYYNLDSWGQGTTLTVSS
VL: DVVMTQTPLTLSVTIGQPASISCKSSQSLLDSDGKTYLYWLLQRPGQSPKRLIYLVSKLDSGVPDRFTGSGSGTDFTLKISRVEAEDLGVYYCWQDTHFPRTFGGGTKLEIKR
- plasmin generation, IC50abs [2]: 8.61 nM
- plasmin generation, Imax [2]: 90%

B12: A105 (antibody, mouse IgG1, V domains shown)
VH: QVQLQQSGAELMKPGASVKISCKATGFTFSIYWIEWVKQRPGLGLEWIGEILPGSGSTNYNEKFKGKATFTADTSSNTAFMQLSSLTSEDSAVYYCARGGLYYDLDYWGQGTILTVSS
VL: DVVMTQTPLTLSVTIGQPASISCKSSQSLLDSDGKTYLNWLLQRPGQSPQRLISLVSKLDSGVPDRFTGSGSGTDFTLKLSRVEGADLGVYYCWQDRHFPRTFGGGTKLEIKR
- plasmin generation, IC50abs [2]: 27 nM
- plasmin generation, Imax [2]: 88%

B13: E16 (antibody, mouse IgG1, V domains shown)
VH: EVKLVESGGGLVKPGGSLKLSCAASGFTFSNYGMSWVRQTPEKGLGWVASLRTGGNTYYSDSVKGRFTISRDNDRNILYLQMSSLTSEDTAVYYCARGLRHWGYFDVWGAGTTVTVSS
VL: DIVMTQSHKFMSTSVGDRVNITCKASQDVSTAVGWYQQEPGQSPKLLIYSASNRHTGVPDRFTGSGSGTDFTFTISSVQAEDLAVYYCQQHYSSPWTFGGGTKLEIK
- plasmin generation, IC50abs [2]: 4.74 nM
- plasmin generation, Imax [2]: 95%

B14: B28 (antibody, mouse IgG2b, V domains shown)
VH: QVQLQQSGAELMKPGASVKISCKATGYTFSISWIEWIKQRPGGLEWIGKILPGSGGANYNEKFKGKATVTADTSSNTVYMQLSSLTSEDSAVYYCARLSTGTRGAFDYWGQGTTLTVSS
VL: DIQLTQSPASLSASVGATVTITCRASENVYSYLAWYQQKQGKSPQLLVYNAKTLAEGVPSRFSGSGSGTQFSLKINYLQPEDFGSYYCQHHYGTPPTFGGGTKVEIKR
- plasmin generation, IC50abs [2]: 7.28 nM
- plasmin generation, Imax [2]: 90%

Source: patent EP3620472A1 (Sanofi, dated 2020)
